# Experiments:
# [1] = target: T1, METTL3 MTD (MTD3);METTL14 MTD-RGG (MTD14-RGG) (human?;human?, UniProt Q86U44;Q9HCE5 255-580;110-456, |); experiment: EMSA; K+ buffer; EMSA: 2.5 nM RNA, 10 mM potassium (or lithium) phosphate pH 7.5, 25 uM ZnCl2, 10 uM SAM, 0.5 mM DTT, 0.005% Tween 20, 2.5% ficoll, 50 ng/uL yeast tRNA, 4 C, 1 h; GST-RGG: 25 mM Tris-HCl pH 7.5 with 10 mM KCl or LiCl instead of phosphate; conditions: protein: recombinant;recombinant, tags: Strep-tag II;His6, copies: 1;1, label: 5' FAM
# [2] = target: METTL3 MTD (MTD3);METTL14 MTD without RGG (MTD14) (human?;human?, UniProt Q86U44;Q9HCE5 255-580;110-413, |); experiment: as above; conditions: protein: recombinant;recombinant; tags: Strep-tag II;His6; copies: 1;1; label: 5' FAM; intramolecular parallel G4 in K+; unfolded in Li+
# [3] = target: T1, METTL3 MTD (MTD3);METTL14 MTD-RGG …; experiment: EMSA; Li+ buffer; EMSA: 2.5 nM RNA, 10 mM potassium (or lithium) phosphate pH 7.5, 25 uM ZnCl2, 10 uM SAM, 0.5 mM DTT, 0.005% Tween 20, 2.5% ficoll, 50 ng/uL yeast tRNA, 4 C, 1 h; GST-RGG: 25 mM Tris-HCl pH 7.5 with 10 mM KCl or LiCl instead of phosphate; conditions: protein: recombinant;recombinant; tags: Strep-tag II;His6; copies: 1;1; label: 5' FAM; no G4
# T1 sequence (Q86U44 255-580, chain 1 of 2): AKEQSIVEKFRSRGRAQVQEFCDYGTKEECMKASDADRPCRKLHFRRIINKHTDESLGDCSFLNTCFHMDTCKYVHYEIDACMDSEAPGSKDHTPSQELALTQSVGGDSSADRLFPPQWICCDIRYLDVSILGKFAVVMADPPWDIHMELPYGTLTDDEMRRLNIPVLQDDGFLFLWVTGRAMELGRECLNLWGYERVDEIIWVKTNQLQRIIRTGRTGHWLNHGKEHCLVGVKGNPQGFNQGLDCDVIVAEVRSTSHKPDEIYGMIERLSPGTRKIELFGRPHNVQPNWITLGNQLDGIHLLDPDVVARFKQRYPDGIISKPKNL
# T1 sequence (Q9HCE5 110-456, chain 2 of 2): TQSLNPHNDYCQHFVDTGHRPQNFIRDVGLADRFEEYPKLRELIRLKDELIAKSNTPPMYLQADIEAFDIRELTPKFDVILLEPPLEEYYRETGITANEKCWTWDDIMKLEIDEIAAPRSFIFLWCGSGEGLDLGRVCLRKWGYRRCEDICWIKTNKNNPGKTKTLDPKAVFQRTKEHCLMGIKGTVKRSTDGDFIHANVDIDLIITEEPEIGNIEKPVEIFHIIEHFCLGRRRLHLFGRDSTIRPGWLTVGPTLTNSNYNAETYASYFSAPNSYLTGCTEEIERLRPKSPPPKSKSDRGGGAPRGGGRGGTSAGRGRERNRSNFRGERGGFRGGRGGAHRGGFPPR
# METTL3 MTD (MTD3);METTL14 MTD without RGG (MTD14), sequence (Q86U44 255-580, chain 1 of 2): as the sequence (Q86U44 255-580, chain 1 of 2) above
# METTL3 MTD (MTD3);METTL14 MTD without RGG (MTD14), sequence (Q9HCE5 110-413, chain 2 of 2): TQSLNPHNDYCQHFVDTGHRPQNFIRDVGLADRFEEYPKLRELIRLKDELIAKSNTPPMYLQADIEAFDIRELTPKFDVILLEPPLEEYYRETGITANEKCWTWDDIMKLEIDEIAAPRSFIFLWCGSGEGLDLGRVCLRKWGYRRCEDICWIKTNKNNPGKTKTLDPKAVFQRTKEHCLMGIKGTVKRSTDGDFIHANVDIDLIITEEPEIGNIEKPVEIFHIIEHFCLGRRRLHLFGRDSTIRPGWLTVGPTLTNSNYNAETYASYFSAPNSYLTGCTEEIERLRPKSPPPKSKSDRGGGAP
binder,measurement,setting,value
UUUUUUUUUUUUUUAGGGUUAGGGAGACAUUAGGGUUAGGG (structured_RNA) [G4 RNA3],Kd,"[1]; intramolecular G4 in K+, loops 3-8-3",29 ± 13 nM
UUAGGGUUAGGGUUAGGGUUUUAGACAUUUUUUAGGG (structured_RNA) [G4 RNA2],Kd,"[1]; intramolecular G4 in K+, loops 3-3-16",36 ± 11 nM
UUAGGGUUAGGGUUUUAGACAUUUUUUAGGGUUAGGG (structured_RNA) [G4 RNA1],Kd,"[1]; intramolecular parallel G4 in K+, unfolded in Li+",35 ± 12 nM
same,Kd,[2],419 ± 109 nM
UUAGGGUUAGGGUUAGGGUUAGGGAGACAUUUUUUUUUUUU (structured_RNA) [G4 RNA4],Kd,"[1]; intramolecular G4 in K+, loops 3-3-3",35 ± 9 nM
UGAGUGUGAGUGUUUUAGACAUUUUUGAGUGUGAGUG (ssRNA) [Non-G4 RNA1],Kd,[1]; no G4,209 ± 94 nM
same,Kd,[3],149 ± 11 nM
UUUUUUUUUUUUUGAGUGUGAGUGAGACAUGAGUGUGAGUG (ssRNA) [Non-G4 RNA2],Kd,[1]; no G4,309 ± 85 nM
